Source: IntAct's records for PubMed 31515488

B1: Coiled-coil domain-containing protein 60 (Homo sapiens), Q8IWA6 (parent)
chain: MTKVPATKKLQSSPNSGAVRPFYASENLRQVPDKPMKSIKYMDKEIINLKKDLIRSRFLIQSVKIGRGYFAILREETAKKKKQQQLQKLKEEERNKFQPAEKISEIHYGDTLLSTYDDEKLKTLGARVTRRPFTPIHSCIISPSLTEAHVEPLFRQLCALHWLLEALTIDHTHHTMKPVITCWNPKDPGGSKSTIKKINKDKSMGQKWEHFITAPKTKKFKIPTMRVTNRKPSRRGSTLSLSRASGGSSPQSSMISVNPGSDEPPSVNTQVTSSKDIEDNESSSTKPDEEPLYMNLQKLLEMVREDARRTVTIENGMQRKAPSILSVLKQNKSNSAYKEMQTTLKSSERSSSTSAESHIQPVQKKSKNRTNCDINIHYKSGVCNTMRAKFYSVAQEAGFCLQDKMEILMKRQEERGIQKFRAFVLVSNFQKDIAKMRHHISVVKGDAEEIADHWYFDLLSKLPEDLKNFRPAKKILVKLQKFGENLDLRIRPHVLLKVLQDLRIWELCSPDIAVAIEFVREHIIHMPQEDYISWLQSRINIPIGPYSALR
B2: Tuftelin-interacting protein 11 (Homo sapiens), Q9UBB9 (parent)
chain: MSLSHLYRDGEGRIDDDDDERENFEITDWDLQNEFNPNRQRHWQTKEEATYGVWAERDSDDERPSFGGKRARDYSAPVNFISAGLKKGAAEEAELEDSDDEEKPVKQDDFPKDFGPRKLKTGGNFKPSQKGFAGGTKSFMDFGSWERHTKGIGQKLLQKMGYVPGRGLGKNAQGIINPIEAKQRKGKGAVGAYGSERTTQSMQDFPVVDSEEEAEEEFQKELSQWRKDPSGSKKKPKYSYKTVEELKAKGRISKKLTAPQKELSQVKVIDMTGREQKVYYSYSQISHKHNVPDDGLPLQSQQLPQSGKEAKAPGFALPELEHNLQLLIDLTEQEIIQNDRQLQYERDMVVNLFHELEKMTEVLDHEERVISNLSKVLEMVEECERRMQPDCSNPLTLDECARIFETLQDKYYEEYRMSDRVDLAVAIVYPLMKEYFKEWDPLKDCTYGTEIISKWKSLLENDQLLSHGGQDLSADAFHRLIWEVWMPFVRNIVTQWQPRNCDPMVDFLDSWVHIIPVWILDNILDQLIFPKLQKEVENWNPLTDTVPIHSWIHPWLPLMQARLEPLYSPIRSKLSSALQKWHPSDSSAKLILQPWKDVFTPGSWEAFMVKNIVPKLGMCLGELVINPHQQHMDAFYWVIDWEGMISVSSLVGLLEKHFFPKWLQVLCSWLSNSPNYEEITKWYLGWKSMFSDQVLAHPSVKDKFNEALDIMNRAVSSNVGAYMQPGARENIAYLTHTERRKDFQYEAMQERREAENMAQRGIGVAASSVPMNFKDLIETKAEEHNIVFMPVIGKRHEGKQLYTFGRIVIYIDRGVVFVQGEKTWVPTSLQSLIDMAK
partner: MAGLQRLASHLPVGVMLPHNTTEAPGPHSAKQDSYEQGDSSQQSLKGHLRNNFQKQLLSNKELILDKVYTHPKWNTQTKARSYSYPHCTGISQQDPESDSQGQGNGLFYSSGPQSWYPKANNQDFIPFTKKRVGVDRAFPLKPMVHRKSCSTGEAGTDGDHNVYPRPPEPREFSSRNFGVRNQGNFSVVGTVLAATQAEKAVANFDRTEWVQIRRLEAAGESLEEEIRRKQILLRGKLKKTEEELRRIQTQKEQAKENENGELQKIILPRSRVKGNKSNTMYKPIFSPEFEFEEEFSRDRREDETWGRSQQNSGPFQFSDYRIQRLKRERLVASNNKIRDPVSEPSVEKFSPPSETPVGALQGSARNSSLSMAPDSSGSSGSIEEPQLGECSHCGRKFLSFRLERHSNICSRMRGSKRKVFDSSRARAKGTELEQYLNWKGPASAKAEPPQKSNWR
B3: DCC-interacting protein 13-beta (Homo sapiens), Q8NEU8 (parent)
chain: MPAVDKLLLEEALQDSPQTRSLLSVFEEDAGTLTDYTNQLLQAMQRVYGAQNEMCLATQQLSKQLLAYEKQNFALGKGDEEVISTLHYFSKVVDELNLLHTELAKQLADTMVLPIIQFREKDLTEVSTLKDLFGLASNEHDLSMAKYSRLPKKKENEKVKTEVGKEVAAARRKQHLSSLQYYCALNALQYRKQMAMMEPMIGFAHGQINFFKKGAEMFSKRMDSFLSSVADMVQSIQVELEAEAEKMRVSQQELLSVDESVYTPDSDVAAPQINRNLIQKAGYLNLRNKTGLVTTTWERLYFFTQGGNLMCQPRGAVAGGLIQDLDNCSVMAVDCEDRRYCFQITTPNGKSGIILQAESRKENEEWICAINNISRQIYLTDNPEAVAIKLNQTALQAVTPITSFGKKQESSCPSQNLKNSEMENENDKIVPKATASLPEAEELIAPGTPIQFDIVLPATEFLDQNRGSRRTNPFGETEDESFPEAEDSLLQQMFIVRFLGSMAVKTDSTTEVIYEAMRQVLAARAIHNIFRMTESHLMVTSQSLRLIDPQTQVSRANFELTSVTQFAAHQENKRLVGFVIRVPESTGEESLSTYIFESNSEGEKICYAINLGKEIIEVQKDPEALAQLMLSIPLTNDGKYVLLNDQPDDDDGNPNEHRGAESEA
partner: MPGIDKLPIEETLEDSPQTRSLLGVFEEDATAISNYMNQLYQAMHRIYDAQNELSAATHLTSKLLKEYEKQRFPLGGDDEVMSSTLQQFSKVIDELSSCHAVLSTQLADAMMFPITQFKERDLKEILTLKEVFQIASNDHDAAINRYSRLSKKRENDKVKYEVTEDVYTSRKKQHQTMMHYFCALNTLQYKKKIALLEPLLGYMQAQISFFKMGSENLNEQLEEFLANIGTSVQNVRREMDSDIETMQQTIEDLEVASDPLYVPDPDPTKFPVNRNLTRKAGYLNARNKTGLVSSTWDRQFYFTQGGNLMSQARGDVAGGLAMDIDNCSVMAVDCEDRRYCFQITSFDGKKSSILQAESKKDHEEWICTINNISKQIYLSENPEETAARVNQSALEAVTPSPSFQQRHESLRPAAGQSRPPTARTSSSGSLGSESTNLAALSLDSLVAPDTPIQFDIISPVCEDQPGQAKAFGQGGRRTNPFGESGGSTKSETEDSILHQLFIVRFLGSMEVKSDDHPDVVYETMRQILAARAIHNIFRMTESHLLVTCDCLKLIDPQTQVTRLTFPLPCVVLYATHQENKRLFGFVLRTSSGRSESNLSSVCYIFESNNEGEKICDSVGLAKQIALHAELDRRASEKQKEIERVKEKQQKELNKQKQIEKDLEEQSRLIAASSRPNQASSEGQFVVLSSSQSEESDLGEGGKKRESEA
B4: EF-hand calcium-binding domain-containing protein 4B (Homo sapiens), Q9BSW2 (parent)
chain: MAAPDGRVVSRPQRLGQGSGQGPKGSGACLHPLDSLEQKETQEQTSGQLVMLRKAQEFFQTCDAEGKGFIARKDMQRLHKELPLSLEELEDVFDALDADGNGYLTPQEFTTGFSHFFFSQNNPSQEDAGEQVAQRHEEKVYLSRGDEDLGDMGEDEEAQFRMLMDRLGAQKVLEDESDVKQLWLQLKKEEPHLLSNFEDFLTRIISQLQEAHEEKNELECALKRKIAAYDEEIQHLYEEMEQQIKSEKEQFLLKDTERFQARSQELEQKLLCKEQELEQLTQKQKRLEGQCTALHHDKHETKAENTKLKLTNQELARELERTSWELQDAQQQLESLQQEACKLHQEKEMEVYRVTESLQREKAGLLKQLDFLRERNKHLRDERDICFQKNKAAKANTAASRASWKKRSGSVIGKYVDSRGILRSQSEEEEEVFGIPRRSSLGLSGYPLTEEEPGTGEPGPGGPYPRPLRRIISVEEDPLPQLLDGGFEQPLSKCSEEEEVSDQGVQGQIPEAPPLKLTPTSPRGQPVGKEALCKEESSPSAPDRLFKIVFVGNSAVGKTSFLRRFCEDRFSPGMAATVGIDYRVKTLNVDNSQVALQLWDTAGQERYRCITQQFFRKADGVIVMYDLTDKQSFLSVRRWLSSVEEAVGDRVPVLLLGNKLDNEKEREVPRGLGEQLATENNLIFYECSAYSGHNTKESLLHLARFLKEQEDTVREDTIQVGHPAKKKSCCG
partner: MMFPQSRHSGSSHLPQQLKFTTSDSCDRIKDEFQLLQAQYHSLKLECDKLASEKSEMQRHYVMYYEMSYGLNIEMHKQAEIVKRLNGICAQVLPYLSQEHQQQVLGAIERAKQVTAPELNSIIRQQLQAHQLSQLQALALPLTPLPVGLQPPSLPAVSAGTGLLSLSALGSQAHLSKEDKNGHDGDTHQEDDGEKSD
B5: Tripartite motif-containing protein 59 (Homo sapiens), Q8IWR1 (parent)
chain: MHNFEEELTCPICYSIFEDPRVLPCSHTFCRNCLENILQASGNFYIWRPLRIPLKCPNCRSITEIAPTGIESLPVNFALRAIIEKYQQEDHPDIVTCPEHYRQPLNVYCLLDKKLVCGHCLTIGQHHGHPIDDLQSAYLKEKDTPQKLLEQLTDTHWTDLTHLIEKLKEQKSHSEKMIQGDKEAVLQYFKELNDTLEQKKKSFLTALCDVGNLINQEYTPQIERMKEIREQQLELMALTISLQEESPLKFLEKVDDVRQHVQILKQRPLPEVQPVEIYPRVSKILKEEWSRTEIGQIKNVLIPKMKISPKRMSCSWPGKDEKEVEFLKILNIVVVTLISVILMSILFFNQHIITFLSEITLIWFSEASLSVYQSLSNSLHKVKNILCHIFYLLKEFVWKIVSH
partner: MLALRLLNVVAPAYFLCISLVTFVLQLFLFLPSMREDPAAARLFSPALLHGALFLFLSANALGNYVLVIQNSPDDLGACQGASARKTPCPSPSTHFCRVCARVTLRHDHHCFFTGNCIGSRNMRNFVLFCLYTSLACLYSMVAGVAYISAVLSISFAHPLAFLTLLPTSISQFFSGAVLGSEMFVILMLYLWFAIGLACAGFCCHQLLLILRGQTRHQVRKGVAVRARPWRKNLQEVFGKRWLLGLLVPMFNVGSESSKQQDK
B6: Protein BEX5 (Homo sapiens), Q5H9J7 (parent)
chain: MENVPKENKVVEKAPVQNEAPALGGGEYQEPGGNVKGVWAPPAPGFGEDVPNRLVDNIDMIDGDGDDMERFMEEMRELRRKIRELQLRYSLRILIGDPPHHDHHDEFCLMP
B7: Synaptotagmin-like protein 5 (Homo sapiens), Q8TDW5 (parent)
chain: MSKNSEFINLSFLLDHEKEMILGVLKRDEYLKKVEDKRIRKLKNELLEAKRRSGKTQQEASRVCVHCHRNLGLIFDRGDPCQACSLRVCRECRVAGPNGSWKCTVCDKIAQLRIITGEWFFEEKAKRFKQVNVLGTDVVRQSILRRSPGAEEVQSQEQTRQDAEKSDTSPVAGKKASHDGPKRKGFLLSKFRSATRGEIITPKTDTGRSYSLDLDGQHFRSLKSPPGSDRGSTGSSDLNDQEPGPRTPKSSRSNGVTPGTQSSPAPSTRTVTSVISREYGFENSMDLAAIEGTSQELTKSHRRNTSGTPSIAVSGTSLSSDQSRSELDLSESFTEDSEDTVSIRSKSVPGALDKDSLEETEESIDALVSSQLSTNTHRLASGLSTTSLNSMMSVYSETGDYGNVKVSGEILLHISYCYKTGGLYIFVKNCRNLAIGDEKKQRTDAYVKSYLLPDKSRNNKRKTKIRTGTNPEFNETLKYTISHTQLETRTLQLSVWHYDRFGRNSFLGEVEIPFDSWNFENPTDEWFVLQPKVEFAPDIGLQYKGELTVVLRYIPPEENLMLPPEQLQGNKTFKKGKKKESPVISGGILEVFIKEAKNLTAVKSGGTSDSFVKGYLLPDDSKATKHKTLVIKKSVNPQWNHTFMFSGIHPQDIKNVCLELTIWDKEAFSSNIFLGGVRLNSGSGVSHGKNVDWMDSQGEEQRLWQKMANNPGTPFEGVLMLRSSMGKCRL
B8: Protein LDOC1 (Homo sapiens), O95751 (parent)
chain: MVDELVLLLHALLMRHRALSIENSQLMEQLRLLVCERASLLRQVRPPSCPVPFPETFNGESSRLPEFIVQTASYMLVNENRFCNDAMKVAFLISLLTGEAEEWVVPYIEMDSPILGDYRAFLDEMKQCFGWDDDEDDDDEEEEDDY
partner: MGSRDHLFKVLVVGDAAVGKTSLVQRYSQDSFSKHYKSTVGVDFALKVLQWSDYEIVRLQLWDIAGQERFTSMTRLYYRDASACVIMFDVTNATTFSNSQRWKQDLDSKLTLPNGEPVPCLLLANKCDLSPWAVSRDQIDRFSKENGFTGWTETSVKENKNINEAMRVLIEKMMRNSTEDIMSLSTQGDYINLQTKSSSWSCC

Variants of: B1
Details: with mtus2_human MTUS2, Q5JR59
Chain of mtus2_human MTUS2, Q5JR59 (Q5JR59 whole entry): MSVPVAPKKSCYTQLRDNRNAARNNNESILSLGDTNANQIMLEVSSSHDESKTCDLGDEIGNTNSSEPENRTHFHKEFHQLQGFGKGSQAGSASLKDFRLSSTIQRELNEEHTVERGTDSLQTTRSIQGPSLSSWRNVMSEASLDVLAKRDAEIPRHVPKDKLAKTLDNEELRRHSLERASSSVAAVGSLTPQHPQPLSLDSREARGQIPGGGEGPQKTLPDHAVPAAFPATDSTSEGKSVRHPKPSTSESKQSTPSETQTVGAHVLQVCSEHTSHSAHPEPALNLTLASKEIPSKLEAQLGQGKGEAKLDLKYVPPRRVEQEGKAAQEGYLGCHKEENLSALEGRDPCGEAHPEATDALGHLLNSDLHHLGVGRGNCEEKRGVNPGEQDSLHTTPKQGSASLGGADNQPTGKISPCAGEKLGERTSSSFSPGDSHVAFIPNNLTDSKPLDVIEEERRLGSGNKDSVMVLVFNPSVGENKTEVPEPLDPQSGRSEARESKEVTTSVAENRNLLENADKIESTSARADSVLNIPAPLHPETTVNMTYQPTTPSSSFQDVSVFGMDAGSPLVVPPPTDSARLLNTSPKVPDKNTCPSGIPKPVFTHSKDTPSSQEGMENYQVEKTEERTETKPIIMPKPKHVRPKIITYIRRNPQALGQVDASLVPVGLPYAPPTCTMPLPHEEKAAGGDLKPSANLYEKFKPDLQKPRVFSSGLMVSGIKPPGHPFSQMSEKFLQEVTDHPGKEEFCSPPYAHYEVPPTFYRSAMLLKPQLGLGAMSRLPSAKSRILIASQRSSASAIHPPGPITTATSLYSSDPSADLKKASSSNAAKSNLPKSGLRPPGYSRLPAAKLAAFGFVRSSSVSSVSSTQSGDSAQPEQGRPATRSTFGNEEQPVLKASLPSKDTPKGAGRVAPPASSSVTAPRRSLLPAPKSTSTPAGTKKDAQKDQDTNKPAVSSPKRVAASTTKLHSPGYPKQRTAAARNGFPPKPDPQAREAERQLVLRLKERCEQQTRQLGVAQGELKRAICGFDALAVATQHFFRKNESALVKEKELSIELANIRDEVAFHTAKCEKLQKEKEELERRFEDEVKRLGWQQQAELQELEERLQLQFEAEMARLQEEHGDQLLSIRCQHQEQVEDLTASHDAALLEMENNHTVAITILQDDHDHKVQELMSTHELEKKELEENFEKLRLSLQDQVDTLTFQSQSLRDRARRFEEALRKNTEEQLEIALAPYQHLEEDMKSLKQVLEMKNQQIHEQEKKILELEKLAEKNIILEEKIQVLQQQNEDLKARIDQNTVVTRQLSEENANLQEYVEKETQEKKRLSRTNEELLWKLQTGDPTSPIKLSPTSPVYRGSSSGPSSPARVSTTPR

| Variant | effect of a mutation on the interaction |
| --- | --- |
| I46V | disrupting interaction strength |

Variants of: B2
Details: with zc21c_human ZC2HC1C

| Variant | effect of a mutation on the interaction |
| --- | --- |
| R8Q | with no effect |
| S688L | with no effect |

Variants of: B3
Details: with dp13a_human APPL1, Q9UKG1

| Variant | effect of a mutation on the interaction |
| --- | --- |
| K70R | with no effect |

Variants of: B4
Details: with tle5_human TLE5, Q08117

| Variant | effect of a mutation on the interaction |
| --- | --- |
| H212Q | with no effect |

Variants of: B5
Details: with zdh22_human ZDHHC22, Q8N966

| Variant | effect of a mutation on the interaction |
| --- | --- |
| I277V | with no effect |

Variants of: B6
Details: with emil1_human EMILIN1, Q9Y6C2
Chain of emil1_human EMILIN1, Q9Y6C2 (Q9Y6C2 whole entry): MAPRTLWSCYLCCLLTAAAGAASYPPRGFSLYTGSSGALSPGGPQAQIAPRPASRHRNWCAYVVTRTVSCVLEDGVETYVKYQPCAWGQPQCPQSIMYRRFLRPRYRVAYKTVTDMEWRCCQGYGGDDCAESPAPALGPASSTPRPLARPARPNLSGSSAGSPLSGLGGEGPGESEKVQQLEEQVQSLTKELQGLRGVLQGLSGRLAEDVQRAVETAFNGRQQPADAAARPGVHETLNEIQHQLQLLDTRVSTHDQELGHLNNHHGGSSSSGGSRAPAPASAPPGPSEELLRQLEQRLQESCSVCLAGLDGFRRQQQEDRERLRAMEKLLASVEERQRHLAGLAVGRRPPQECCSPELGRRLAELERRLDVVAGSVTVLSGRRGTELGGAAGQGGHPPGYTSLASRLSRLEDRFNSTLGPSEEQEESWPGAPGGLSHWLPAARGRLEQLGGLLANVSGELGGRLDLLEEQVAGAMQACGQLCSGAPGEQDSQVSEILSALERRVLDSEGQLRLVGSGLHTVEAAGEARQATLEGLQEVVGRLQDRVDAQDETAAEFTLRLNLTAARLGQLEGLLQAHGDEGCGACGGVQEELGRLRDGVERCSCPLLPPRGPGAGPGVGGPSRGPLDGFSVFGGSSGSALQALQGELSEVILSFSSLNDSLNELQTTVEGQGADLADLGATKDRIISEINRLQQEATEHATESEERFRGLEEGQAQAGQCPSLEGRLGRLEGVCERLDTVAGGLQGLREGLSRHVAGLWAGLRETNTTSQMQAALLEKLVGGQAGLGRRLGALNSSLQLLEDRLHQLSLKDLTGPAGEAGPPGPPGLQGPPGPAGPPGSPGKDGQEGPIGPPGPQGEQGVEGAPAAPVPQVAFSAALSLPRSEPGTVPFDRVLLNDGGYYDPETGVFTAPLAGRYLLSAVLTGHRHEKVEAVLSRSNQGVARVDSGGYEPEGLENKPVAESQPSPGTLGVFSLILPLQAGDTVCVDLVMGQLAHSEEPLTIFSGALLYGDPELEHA

| Variant | effect of a mutation on the interaction |
| --- | --- |
| E74D | disrupting interaction strength |

Variants of: B7
Details: with cep70_human CEP70, Q8NHQ1
Chain of cep70_human CEP70, Q8NHQ1 (Q8NHQ1 whole entry): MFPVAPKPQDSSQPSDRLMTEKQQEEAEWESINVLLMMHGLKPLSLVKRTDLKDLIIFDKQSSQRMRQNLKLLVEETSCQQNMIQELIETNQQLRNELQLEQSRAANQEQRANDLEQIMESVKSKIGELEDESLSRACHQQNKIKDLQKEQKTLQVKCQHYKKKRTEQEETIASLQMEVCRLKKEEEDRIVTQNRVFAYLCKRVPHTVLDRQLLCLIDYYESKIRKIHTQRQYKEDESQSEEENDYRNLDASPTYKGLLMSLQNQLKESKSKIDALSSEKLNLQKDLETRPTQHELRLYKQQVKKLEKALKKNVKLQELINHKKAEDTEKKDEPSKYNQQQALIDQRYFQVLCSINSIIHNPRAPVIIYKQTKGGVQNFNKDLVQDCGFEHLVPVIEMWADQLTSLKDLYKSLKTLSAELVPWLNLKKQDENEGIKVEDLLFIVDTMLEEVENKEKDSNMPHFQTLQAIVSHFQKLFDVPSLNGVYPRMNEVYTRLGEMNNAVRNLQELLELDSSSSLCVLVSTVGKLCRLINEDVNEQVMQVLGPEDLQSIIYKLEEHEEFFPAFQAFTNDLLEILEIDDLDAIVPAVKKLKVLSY

| Variant | effect of a mutation on the interaction |
| --- | --- |
| S369P | with no effect |
| D400N | with no effect |
| R160H | with no effect |

Variants of: B8
Details: with rab7l_human RAB29, O14966

| Variant | effect of a mutation on the interaction |
| --- | --- |
| L12H | disrupting interaction strength |
